{"source": "paper PMC8878318", "about": "“DogCatcher allows loop-friendly protein-protein ligation” (Cell Chemical Biology, 2022)", "key": {"Gre2p": {"target": "T1, Gre2p (Saccharomyces cerevisiae, UniProt Q12068)", "T1 construct": "gene GRE2; wild-type Gre2p without loop insertion, pET28-Gre2p synthetic codon-optimised gene, expressed in E. coli BL21 DE3 RIPL, Ni-NTA purified", "T1 sequence (Q12068 1-342)": "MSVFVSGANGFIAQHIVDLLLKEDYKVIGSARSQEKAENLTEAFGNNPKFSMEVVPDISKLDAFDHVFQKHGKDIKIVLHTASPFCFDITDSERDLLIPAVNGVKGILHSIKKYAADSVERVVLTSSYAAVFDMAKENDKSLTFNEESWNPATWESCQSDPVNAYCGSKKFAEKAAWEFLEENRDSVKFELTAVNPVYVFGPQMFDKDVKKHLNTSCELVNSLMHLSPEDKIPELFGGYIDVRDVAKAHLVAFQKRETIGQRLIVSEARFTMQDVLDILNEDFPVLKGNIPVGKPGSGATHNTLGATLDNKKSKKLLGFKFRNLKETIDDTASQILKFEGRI", "assay": "NADPH oxidation, absorbance at […] nm", "type": "biochemical", "details": "1.5 mM isovaleraldehyde; 0.25 mM NADPH; 100 mM potassium phosphate pH 7.4; 25 °C"}, "[1]": {"target": "HaloTag7SS-DogTag (Streptococcus pneumoniae TIGR4)", "assay": "isopeptide bond formation followed by SDS-PAGE with Coomassie densitometry; reaction toward completion: 10 or 20 μM DogCatcher with 10 or 20 μM HaloTag7SS-DogTag, PBS pH 7.5, 25°C, 200 min"}, "[2]": {"target": "AviTag-DogTag-MBP (Streptococcus pneumoniae TIGR4)", "assay": "isopeptide bond formation followed by SDS-PAGE with Coomassie densitometry; 5 μM of each protein in solution, PBS pH 7.5 (pH 7.4 in p-0004), 25°C; second-order rate constant from 1/[Catcher] against time"}, "[3]": {"target": "Gre2p-DogTag Loop B (Saccharomyces cerevisiae | Streptococcus pneumoniae TIGR4) (UniProt Q12068)", "assay": "isopeptide bond formation followed by SDS-PAGE with Coomassie densitometry; 5 μM of each protein in solution, PBS pH 7.5 (pH 7.4 in p-0004), 25°C; second-order rate constant from 1/[Catcher] against time"}, "[4]": {"target": "sfGFP-DogTag Loop A (Streptococcus pneumoniae TIGR4)", "assay": "isopeptide bond formation followed by SDS-PAGE with Coomassie densitometry; 5 μM of each protein in solution, PBS pH 7.5 (pH 7.4 in p-0004), 25°C; second-order rate constant from 1/[Catcher] against time"}, "[5]": {"target": "AviTag-R2Tag-MBP (Streptococcus pneumoniae TIGR4)", "assay": "isopeptide bond formation followed by SDS-PAGE with Coomassie densitometry; 5 μM of each protein in solution, PBS pH 7.5 (pH 7.4 in p-0004), 25°C; second-order rate constant from 1/[Catcher] against time"}, "[6]": {"target": "Gre2p-SpyTag003 Loop B (Saccharomyces cerevisiae) (UniProt Q12068)", "assay": "isopeptide bond formation followed by SDS-PAGE with Coomassie densitometry; 5 μM of each protein in solution, PBS pH 7.5 (pH 7.4 in p-0004), 25°C; second-order rate constant from 1/[Catcher] against time"}, "sfGFP-SpyTag003 Loop A": {"target": "sfGFP-SpyTag003 Loop A", "assay": "isopeptide bond formation followed by SDS-PAGE with Coomassie densitometry; 5 μM of each protein in solution, PBS pH 7.5 (pH 7.4 in p-0004), 25°C; second-order rate constant from 1/[Catcher] against time"}}}
{"compound": "NC(=O)C1=CN([C@@H]2O[C@H](COP(=O)(O)OP(=O)(O)OC[C@H]3O[C@@H](n4cnc5c(N)ncnc54)[C@H](OP(=O)(O)O)[C@@H]3O)[C@@H](O)[C@H]2O)C=CC1", "note": "[NADPH]", "values": [{"measurement": "NADPH oxidation, absorbance at 340 nm", "setting": "Gre2p", "result": "Reduction of isovaleraldehyde to isoamyl alcohol by Gre2p is nicotinamide adenine dinucleotide phosphate (NADPH) dependent"}]}
{"compound": "DogCatcher (designed binder)", "values": [{"measurement": "percent of DogCatcher reacted (2-fold excess of HaloTag7SS-DogTag)", "setting": "[1]", "result": 98, "unit": "%"}, {"measurement": "percent of HaloTag7SS-DogTag reacted (2-fold excess of DogCatcher)", "setting": "[1]", "result": 98, "unit": "%"}, {"measurement": "second-order rate constant of covalent reaction", "setting": "[2]", "result": 760, "unit": "M⁻¹ s⁻¹"}, {"measurement": "second-order rate constant of covalent reaction", "setting": "[3]", "result": 850, "unit": "M⁻¹ s⁻¹"}, {"measurement": "second-order rate constant of covalent reaction", "setting": "[4]", "result": 1000, "unit": "M⁻¹ s⁻¹"}]}
{"compound": "R2Catcher (domain or fragment)", "values": [{"measurement": "second-order rate constant of covalent reaction", "setting": "[2]", "result": 30, "unit": "M⁻¹ s⁻¹"}, {"measurement": "second-order rate constant of covalent reaction", "setting": "[5]", "result": 3, "unit": "M⁻¹ s⁻¹"}]}
{"compound": "SpyCatcher003 (designed binder)", "values": [{"measurement": "second-order rate constant of covalent reaction", "setting": "[6]", "result": 156, "unit": "M⁻¹ s⁻¹"}, {"measurement": "second-order rate constant of covalent reaction", "setting": "sfGFP-SpyTag003 Loop A", "result": 87, "unit": "M⁻¹ s⁻¹"}]}
